Laboratory results published in patent US5847088A, “Antibodies specific for platelet-activating factor acetylhydrolase” (ICOS Corporation, priority 1995, dated 1998).

Key:
[1] = format: biochemical
Excerpt: The most remarkable property of the PAF acetylhydrolase is its marked specificity for substrates with a short residue at the sn-2 position of the substrate. This strict specificity distinguishes PAF acetylhydrolase from other forms of PLA2. […] Native plasma PAF-AH has several other properties that distinguish it from other phospholipases including calcium-independence and resistance to compounds that modify sulfhydryl groups or disrupt disulfides.

PAF-induced foot edema = assay: Rat foot edema model, PAF-induced; format: in vivo
Experimental: Six to eight-week-old female Long Evans rats (Charles River, Wilmington, Mass.), weighing 180-200 grams, were used for all experiments. Prior to experimental manipulations, animals were anesthetized with a mixture of the anesthetics Ketaset (Fort Dodge Laboratories, Fort Dodge, Iowa), Rompun (Miles, Shawnee Mission, Kans.), and Ace Promazine (Aveco, Fort Dodge, Iowa) administered subcutaneously at approximately 2.5 mg Ketaset, 1.6 mg Rompun, 0.2 mg Ace Promazine per animal per dose. Edema was induced in the foot by administration of either PAF or zymosan as follows. PAF (Sigma #P-1402) was freshly prepared for each experiment from a 19.1 mM stock solution stored in chloroform/methanol (9:1) at -20° C. Required volumes were dried down under N2, diluted 1:1000 in a buffer containing 150 mM NaCl, 10 mM Tris pH 7.5, and 0.25% BSA, and sonicated for five minutes. Animals received 50 μl PAF (final dose of 0.96 nmoles) subcutaneously between the hind foot pads, and edema was assessed after 1 hour and again after 2 hours in some experiments. Zymosan A (Sigma #A-8800) was freshly prepared for each experiment as a suspension of 10 mg/ml in PBS. Animals received 50 μl of zymosan (final dose of 500 μg) subcutaneously between the hind foot pads and edema was assessed after 2 hours.
Edema was quantitated by measuring the foot volume immediately prior to administration of PAF or zymosan and at indicated time point post-challenge with PAF or zymosan. Edema is expressed as the increase in foot volume in milliliters. Volume displacement measurements were made on anesthetized animals using a plethysmometer (UGO Basile, model #7150) which measures the displaced water volume of the immersed foot. […] Repeated measurements of the same foot using this technique indicate the precision to be within 5%.
PAF-AH was injected locally between the foot pads, or systematically by IV injection in the tail vein. For local administration rats received 100 μl PAF-AH (4000-6000 U/ml) delivered subcutaneously between the right hind foot pads. Left feet served as controls by administration of 100 μl carrier (buffered salt solution). For systemic administration of PAF-AH, rats received the indicated units of PAF-AH in 300 μl of carrier administered IV in the tail vein. Controls received the appropriate volume of carrier IV in the tail vein.

[2] = tested on: PAF-induced necrotizing enterocolitis; assay: Rat model of PAF-induced necrotizing enterocolitis (NEC); format: in vivo
Experimental: The small intestines were removed after 2 hours from the ligament of Trietz to the cecum, thoroughly washed with cold saline and examined grossly. Samples were obtained from microscopic examination from the upper, middle and lower portions of the small intestine. The tissues were fixed in buffered formalin and the sample processed for microscopic examination by staining with hematoxylin and eosin. The experiment was repeated three times.
In order to determine if the protection against NEC in rats was dose dependent, animals were treated with increasing doses of PAF-AH 15 minutes prior to PAF administration. Initially, PAF-AH, ranging from 25.5 to 25,500 units were administered into the tail vein of rats. PAF (0.4 μg in 0.2 ml of BSA-saline) was subsequently injected into the abdominal aorta 15 minutes after the administration of PAF-AH. The small intestine was removed and examined for NEC development 2 hours after PAF administration. Plasma PAF-AH activity was determined prior to the exogenous administration of the enzyme, and 15 minutes and 21/4 hours after PAF-AH administration. The results are the mean of 2-5 animals in each group.
In order to determine the length of time exogenous PAF-AH afforded protection against development of NEC, rats were injected once with a fixed amount of the enzyme via the tail vein and subsequently challenged with PAF at various time points. PAF-AH (8,500 units in 0.3 ml) or vehicle alone was administered into the tail vein of rats, and PAF (0.36 μg in 0.2 ml of BSA-saline) was injected into the abdominal aorta at the various times after the enzyme administration. The small intestines were removed 2 hours after the PAF injection for gross and histological examinations in order to evaluate for NEC development. Plasma PAF-AH activities were determined at various times after enzyme administration and two hours after PAF administration. The mean value±standard error for enzyme activity was determined for each group.
In order to determine if administration of PAF-AH was capable of reversing development of NEC induced by PAF injection, 25,500 units of enzyme was administered via injection into the vena cava two minutes following PAF administration (0.4 μg).

B1: PAF-AH: Recombinant human plasma platelet-activating factor acetylhydrolase (beginning at Ile42 of SEQ ID NO:8) expressed in E. coli (protein, UniProt Q13093 22-441, looked up)
Platelet-activating factor …: FDWQYINPVAHMKSSAWVNKIQVLMAAASFGQTKIPRGNGPYSVGCTDLMFDHTNKGTFLRLYYPSQDNDRLDTLWIPNKEYFWGLSKFLGTHWLMGNILRLLFGSMTTPANWNSPLRPGEKYPLVVFSHGLGAFRTLYSAIGIDLASHGFIVAAVEHRDRSASATYYFKDQSAAEIGDKSWLYLRTLKQEEETHIRNEQVRQRAKECSQALSLILDIDHGKPVKNALDLKFDMEQLKDSIDREKIAVIGHSFGGATVIQTLSEDQRFRCGIALDAWMFPLGDEVYSRIPQPLFFINSEYFQYPANIIKMKKCYSPDKERKMITIRGSVHQNFADFTFATGKIIGHMLKLKGDIDSNVAIDLSNKASLAFLQKHLGLHKDFDQWDCLIEGDDENLIPGTNINTTNQHIMLQNSSGIEKYN
In the case of B1, the “degradation of glutaroylPC (oxidized phospholipid)” value [1] is reported as “rapidly degraded”, the “mean increase in volume (foot edema)” value (PAF-induced foot edema; 2000 U IV 15 minutes before PAF, 1 hour, ± SEM (FIG. 6)) is reported as 0.08 ± 0.02 mL and the “mean volume increase (foot edema)” value (PAF-induced foot edema; 2000 U IV 15 minutes prior to PAF, two hours after challenge, ± SEM) is reported as 0.10 mL. For the same molecule, the ID50 (PAF-induced foot edema; IV 15 minutes prior to PAF, edema after 1 hour) was 40-80 U per rat, the “IV doses found to dramatically reduce PAF mediated inflammation” value (PAF-induced foot edema; IV dosing studies) was 160-2000 U/rat and the “PAF-induced edema, PAF-AH versus PAF antagonists” value (PAF-induced foot edema; PAF-AH 2000 U IV, CV3988 or Alprazolam 2 mg IP (FIG. 10)) was “reduction in PAF-induced edema beyond that afforded by the established PAF antagonists”. For the same molecule, the “plasma concentration predicted to block PAF-elicited edema” value (PAF-induced foot edema; calculated from plasma volume of 180-200 gram rats) was 25-40 U/ml, the “increase in foot volume” value (PAF-induced foot edema; local subcutaneous 100 μl PAF-AH (4000-6000 U/ml), immediate PAF challenge, 1 hour post-challenge, mean ± SEM) was 0.08 mL and the “duration of protection from PAF induced edema” value (PAF-induced foot edema; single 2000 U IV dose) was “at least 24 hours”. The “NEC development, PAF challenge within the first eight hours after injection” value ([2]; 8,500 units IV once) was “none of the rats developed NEC”, the “animals developing NEC, PAF challenge at 24 and 48 hours after injection” value ([2]; 8,500 units IV once) was 100% and the “protection against NEC” value ([2]; 25,500 units IV followed by PAF injection) was “completely protected”. The “gross findings of bowel, PAF-AH in the absence of PAF” value ([2]; 25,500 units IV, no PAF) was “no effect on the gross findings”, the “NEC development, enzyme given 15 minutes after PAF” value ([2]; 25,500 units into vena cava) was “all animals developed NEC” and the “NEC development, enzyme given two minutes following PAF” value ([2]; 25,500 units into vena cava, PAF 0.4 μg) was “None of the animals developed NEC”. The “gross findings of bowel” value ([2]; 25,500 units via tail vein 15 minutes prior to PAF into aorta) was “the bowel appeared to be normal”, the “lowest protective amount of enzyme against NEC” value ([2]; IV 15 minutes prior to PAF 0.4 μg) was 2040 units and the “NEC development at low doses” value ([2]; less than 2,000 units of the enzyme) was “developed NEC”.
